From PMC9860126, “Mechanistic insights into the nickel-dependent allosteric response of the Helicobacter pylori NikR transcription factor”

Columns and labels:
HpNikR K64A = HpNikR K64A (Helicobacter pylori G27, UniProt A1YSQ9 1-148, K64A); assay: fluorescence anisotropy; Ni(II)-bound; FA: 5 nM DNA, 20 mM Tris pH 7.6, 100 mM NaCl, 3 mM MgSO4, temperature not stated (Ni loading 1.2 eq NiSO4 per monomer at RT). EMSA: 20 mM Tris pH 7.5, 100 mM KCl, 3 mM MgCl2, 0.1% IGEPAL, 5% glycerol, 0.1 mg/ml herring sperm DNA, RT; gel with 800 uM NiSO4 at 4 C; conditions: protein: recombinant; tags: none stated; chain copies: 4; label: fluorescein on internal thymine (T14 of strand 1); blunt
HpNikR GGS = HpNikR GGS (Helicobacter pylori G27, UniProt A1YSQ9 1-148, P59G;N60G;D61S); assay: as above; conditions: protein: recombinant; tags: none stated; chain copies: 4; label: fluorescein on internal thymine (T14 of strand 1); blunt

B1: ureA promoter 32 bp (FA) (dsDNA)
DNA 1: ATATAACACTAATTCATTTTAAATAATAATTA
DNA 2: TAATTATTATTTAAAATGAATTAGTGTTATAT
Kd (HpNikR K64A): 22 ± 2.2 nM | Kd (HpNikR GGS): 4.6 ± 1.2 nM
